T1: human PDL2 (human, UniProt Q9BQ51 20-219, limits assumed)
T1 sequence (looked up): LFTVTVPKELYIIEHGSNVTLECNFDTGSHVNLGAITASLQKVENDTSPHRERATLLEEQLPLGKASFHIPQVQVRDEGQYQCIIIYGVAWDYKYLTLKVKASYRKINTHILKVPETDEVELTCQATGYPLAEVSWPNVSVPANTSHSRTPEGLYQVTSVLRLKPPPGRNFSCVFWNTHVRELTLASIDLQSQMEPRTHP


Legend:
[1] = biological target: T2, human PD-L1 on cells (PDLI-293 / HEK-293 cells expressing PD-L1, MDA-MB-231 cells, activated CD4 cells, … (human, UniProt Q9NZQ7 19-290)); assay: binding to MDA-MB-231 cells, FIG. 19
T2 construct: whole, on cells

soluble mouse PDL1 = biological target: T3, soluble mouse PDL1 (mouse, UniProt Q9EP73 19-238, limits assumed); assay: binding assay of FIG. 17
T3 construct: May be the same protein as the murine PDL1-Fc

soluble human PDL1 = biological target: T4, soluble human PDL1 (human, UniProt Q9NZQ7 19-239, limits assumed); assay: binding assay of FIG. 17
T4 construct: May be the same protein as the human PDL1-Fc; also called soluble PDL1

human PDL2 = biological target: T1, human PDL2; assay: binding assay of FIG. 17

T2 sequence (Q9NZQ7 19-290): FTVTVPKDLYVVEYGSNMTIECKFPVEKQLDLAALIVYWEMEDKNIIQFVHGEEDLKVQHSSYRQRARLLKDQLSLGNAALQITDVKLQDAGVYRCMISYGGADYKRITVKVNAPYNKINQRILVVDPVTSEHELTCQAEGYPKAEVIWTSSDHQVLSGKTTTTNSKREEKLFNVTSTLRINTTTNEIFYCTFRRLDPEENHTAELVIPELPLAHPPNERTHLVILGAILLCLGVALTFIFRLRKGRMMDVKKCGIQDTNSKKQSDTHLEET
T3 sequence (Q9EP73 19-238 limits assumed): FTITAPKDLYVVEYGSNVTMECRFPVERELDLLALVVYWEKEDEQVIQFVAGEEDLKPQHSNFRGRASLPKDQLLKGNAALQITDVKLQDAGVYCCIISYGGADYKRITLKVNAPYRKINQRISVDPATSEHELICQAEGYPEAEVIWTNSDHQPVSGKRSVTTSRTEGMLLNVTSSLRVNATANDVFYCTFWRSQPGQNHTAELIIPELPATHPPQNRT
T4 sequence (Q9NZQ7 19-239 limits assumed): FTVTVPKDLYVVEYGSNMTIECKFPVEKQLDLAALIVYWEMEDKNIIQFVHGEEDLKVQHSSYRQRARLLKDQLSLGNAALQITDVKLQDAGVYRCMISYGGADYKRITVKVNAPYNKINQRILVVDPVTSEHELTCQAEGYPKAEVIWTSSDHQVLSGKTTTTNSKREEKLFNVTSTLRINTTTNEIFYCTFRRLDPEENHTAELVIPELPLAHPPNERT

Binder	binding result [1]	binding result (soluble mouse PDL1)	binding result (soluble human PDL1)	binding result (human PDL2)
tccD7_#114 (antibody, V domains shown, converted to IgG and to an IgG with two Leu-Ala substitutions) VH: EVQLLESGGGLVQPGGSLRLSCAASGFTFSSYLMVWVRQAPGKGLEWVSSIYPSGGITFYADSVKGRFTISRDNSKNTLYLQMNSLRAEDTAIYYCARIKLGTVTTVDYWGQGTLVTVSS VL: QSALTQPASVSGSPGQSITISCTGTSSDVGAYNYVSWYQQHPGKAPKLMIYDVSNRPSGVSNRFSGSKSGNTASLTISGLQAEDEADYYCSSYTSSSTRVFGTGTKVTVLG	binds	binds	binds	no binding
tccD7_#102 (antibody, V domains shown, converted to IgG and to an IgG with two Leu-Ala substitutions; also called tccD7_#2; cD7_#2) VH: EVQLLESGGGLVQPGGSLRLSCAASGFTFSAYRMFWVRQAPGKGLEWVSSIYPSGGITFYADSVKGRFTISRDNSKNTLYLQMNSLRAEDTAIYYCARIKLGTVTTVDYWGQGTLVTVSS VL: QSALTQPASVSGSPGQSITISCTGTSSDVGAYNYVSWYQQHPGKAPKLMIYDVSNRPSGVSNRFSGSKSGNTASLTISGLQAEDEADYYCSSYTSSSTRVFGTGTKVTVLG	binds	binds	binds	no binding
